The results in this text go back to patent US20230194547A1 (Hoffmann-La Roche, published 2023).

In test [1] the target is T1, human FcRn beta-2-microglobulin complex, biotinylated, coupled to streptavidin Sepharose (human, UniProt P55899 24-297; P61769 21-119, limits assumed, biotinylated (Bulk BIRA kit, Avidity)).
T1 construct: Secreted complex purified from the supernatant; also called neonatal Fc receptor; human FcRn chromatography column
As to the kind of experiment: FcRn affinity chromatography, pH gradient 5.5 to 8.8; unlabelled antibody. The protocol: (§1) The UV light absorption at a wavelength of 280 nm was used for detection. The column was regenerated for 10 minutes using 20% buffer B after each run.

In test [2] the target is T1, human FcRn beta-2-microglobulin …. As to the kind of experiment: FcRn affinity chromatography, pH gradient 5.5 to 8.8; dye-labelled antibody. The protocol:
as §1

T1 sequence (P55899 24-297 limits assumed, chain 1 of 2): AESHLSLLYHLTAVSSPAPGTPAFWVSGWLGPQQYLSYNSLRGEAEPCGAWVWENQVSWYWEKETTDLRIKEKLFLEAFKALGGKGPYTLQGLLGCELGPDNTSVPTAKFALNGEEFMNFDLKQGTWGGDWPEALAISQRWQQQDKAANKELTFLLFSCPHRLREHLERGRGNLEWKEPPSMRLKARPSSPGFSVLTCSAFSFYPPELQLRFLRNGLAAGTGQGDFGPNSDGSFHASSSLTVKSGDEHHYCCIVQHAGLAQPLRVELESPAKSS
T1 sequence (P61769 21-119 limits assumed, chain 2 of 2): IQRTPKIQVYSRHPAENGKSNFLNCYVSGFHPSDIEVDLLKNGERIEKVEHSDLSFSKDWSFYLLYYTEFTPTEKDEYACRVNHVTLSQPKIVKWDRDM

B1: Ixekizumab (antibody)
chain 1: not shown
chain 2: DIVMTQTPLSLSVTPGQPASISCRSSRSLVHSRGNTYLHWYLQKPGQSPQLLIYKVSNRFIGVPDRFSGSGSGTDFTLKISRVEAEDVGVYYCSQSTHLPFTFGQGTKLEIKRTVAAPSVFIFPPSDEQLKSGTASVVCLLNNFYPREAKVQWKVDNALQSGNSQESVTEQDSKDSTYSLSSTLTLSKADYEKHKVYACEVTHQGLSSPVTKSFNRGEC
On to B1, for which the “relative retention time on FcRn affinity column” value (“relative retention time” for short) in test [1] was 1.42 relative to anti-Her3 antibody standard.

B2: anti-human phospho tau 422 antibody, labelled with pHAb dye (antibody, human IgG1, kappa, L234A L235A)
heavy: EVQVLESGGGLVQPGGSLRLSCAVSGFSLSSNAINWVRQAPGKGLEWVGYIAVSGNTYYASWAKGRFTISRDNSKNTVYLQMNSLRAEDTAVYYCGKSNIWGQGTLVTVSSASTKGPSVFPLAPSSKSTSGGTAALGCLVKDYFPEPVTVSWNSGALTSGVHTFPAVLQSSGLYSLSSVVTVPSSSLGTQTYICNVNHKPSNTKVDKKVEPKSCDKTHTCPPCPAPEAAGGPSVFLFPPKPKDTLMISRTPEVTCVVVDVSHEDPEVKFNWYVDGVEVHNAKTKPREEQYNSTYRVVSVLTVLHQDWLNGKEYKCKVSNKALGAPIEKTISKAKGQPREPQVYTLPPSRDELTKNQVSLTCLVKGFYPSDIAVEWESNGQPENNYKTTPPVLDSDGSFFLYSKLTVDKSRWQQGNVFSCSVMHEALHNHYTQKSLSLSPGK
light: AQVMTQSPSSLSASVGDRVTITCRSSQSVRTNRLAWFQQKPGQPPKRLIYSASTLDYGVPSRFSGSGSGTEFTLTISSLQPEDFATYYCLGYFDSSADIVAFGGGTKVEIKRTVAAPSVFIFPPSDEQLKSGTASVVCLLNNFYPREAKVQWKVDNALQSGNSQESVTEQDSKDSTYSLSSTLTLSKADYEKHKVYACEVTHQGLSSPVTKSFNRGEC
modifications: pHAb dye on a sulfo DBCO-PEG4-amine linker, clicked to the azide-modified N-glycan of the Fc-region
notes: also called anti-pTau antibody; anti-human p(422)Tau antibody
Take B2: in test [2], the “relative retention time” value was 1.18 relative to anti-Her3 antibody standard.

B3: anti-human phospho tau 422 antibody (antibody, human IgG1, kappa, L234A L235A)
heavy: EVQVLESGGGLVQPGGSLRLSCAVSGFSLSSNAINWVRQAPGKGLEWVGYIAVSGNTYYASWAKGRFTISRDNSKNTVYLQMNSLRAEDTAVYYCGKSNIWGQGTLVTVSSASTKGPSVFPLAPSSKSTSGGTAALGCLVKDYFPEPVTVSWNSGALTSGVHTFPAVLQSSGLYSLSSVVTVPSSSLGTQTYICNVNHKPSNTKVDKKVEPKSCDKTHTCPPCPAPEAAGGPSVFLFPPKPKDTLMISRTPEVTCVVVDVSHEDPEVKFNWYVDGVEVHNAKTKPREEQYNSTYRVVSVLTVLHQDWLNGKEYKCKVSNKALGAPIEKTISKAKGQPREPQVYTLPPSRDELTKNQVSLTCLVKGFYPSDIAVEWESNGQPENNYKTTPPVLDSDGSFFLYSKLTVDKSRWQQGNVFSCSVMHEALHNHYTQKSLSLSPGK
light: B2 light
notes: IgG1, unlabelled; also called anti-pTau antibody; anti-human p(422)Tau antibody
For the molecule B3, the “relative retention time” value in test [1] is 1.13 relative to anti-Her3 antibody standard.

B4: Vedolizumab (antibody)
chain 1: not shown
chain 2: DVVMTQSPLSLPVTPGEPASISCRSSQSLAKSYGNTYLSWYLQKPGQSPQLLIYGISNRFSGVPDRFSGSGSGTDFTLKISRVEAEDVGVYYCLQGTHQPYTFGQGTKVEIKRTVAAPSVFIFPPSDEQLKSGTASVVCLLNNFYPREAKVQWKVDNALQSGNSQESVTEQDSKDSTYSLSSTLTLSKADYEKHKVYACEVTHQGLSSPVTKSFNRGEC
Take B4: the “relative retention time” value in test [1] was 0.33 relative to anti-Her3 antibody standard.
